# Data from paper PMC9482650, “Quantitative fragmentomics allow affinity mapping of interactomes” (Nature Communications, 2022).
# Biological target: T1, APBA2_2, Q99767
# T1 sequence (Q99767 654-744, limits assumed, looked up): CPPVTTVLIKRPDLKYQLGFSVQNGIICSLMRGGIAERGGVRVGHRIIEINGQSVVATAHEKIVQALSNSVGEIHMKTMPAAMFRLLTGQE
# Test: holdup assay
# Set-up: key: below the threshold = too weak to quantify, mostly under pKd 3.1 to 4
# Conditions: plain residues with an end cap or a label only (N-terminal biotin on a linker: ado-ado)
row,Binder,pKd
1,"TKEIPNCTSV [SORCS3, Q9UPU3]",below the threshold
2,"NSTHNLKDYV [CLDN20, P56880]",below the threshold

# Biological target: T2, ARHGAP21, Q5T5U3
# T2 sequence (Q5T5U3 45-169, limits assumed, looked up): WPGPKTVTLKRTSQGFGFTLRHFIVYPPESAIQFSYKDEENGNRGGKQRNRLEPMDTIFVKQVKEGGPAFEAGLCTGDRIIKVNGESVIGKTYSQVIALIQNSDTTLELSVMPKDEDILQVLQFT
# Test: holdup assay
# Set-up: key: below the threshold = too weak to quantify, mostly under pKd 3.1 to 4
# Conditions: plain residues with an end cap or a label only (N-terminal biotin on a linker: ado-ado)
row,Binder,pKd
1,"TKEIPNCTSV [SORCS3, Q9UPU3]",3.86
2,"NSTHNLKDYV [CLDN20, P56880]",3.89

# Biological target: T3, CARD11, Q9BXL7
# T3 sequence (Q9BXL7 662-765, limits assumed, looked up): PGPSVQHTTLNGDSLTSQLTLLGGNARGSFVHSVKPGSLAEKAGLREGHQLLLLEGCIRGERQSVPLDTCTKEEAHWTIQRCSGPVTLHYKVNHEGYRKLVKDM
# Test: holdup assay
# Set-up: key: below the threshold = too weak to quantify, mostly under pKd 3.1 to 4
# Conditions: plain residues with an end cap or a label only (N-terminal biotin on a linker: ado-ado)
row,Binder,pKd
1,"TKEIPNCTSV [SORCS3, Q9UPU3]",below the threshold
2,"NSTHNLKDYV [CLDN20, P56880]",below the threshold

# Biological target: T4, DFNB31_1, Q9P202
# T4 sequence (Q9P202 135-233, limits assumed, looked up): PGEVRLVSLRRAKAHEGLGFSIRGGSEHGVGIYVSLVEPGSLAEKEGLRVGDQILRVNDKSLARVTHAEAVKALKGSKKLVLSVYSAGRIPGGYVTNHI
# Test: holdup assay
# Set-up: key: below the threshold = too weak to quantify, mostly under pKd 3.1 to 4
# Conditions: plain residues with an end cap or a label only (N-terminal biotin on a linker: ado-ado)
row,Binder,pKd
1,"TKEIPNCTSV [SORCS3, Q9UPU3]",4.06
2,"NSTHNLKDYV [CLDN20, P56880]",below the threshold

# Biological target: T5, DFNB31_3, Q9P202
# T5 sequence (Q9P202 811-907, limits assumed, looked up): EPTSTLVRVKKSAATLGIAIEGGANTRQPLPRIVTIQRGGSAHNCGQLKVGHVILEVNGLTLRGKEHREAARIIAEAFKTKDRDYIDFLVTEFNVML
# Test: holdup assay
# Set-up: key: below the threshold = too weak to quantify, mostly under pKd 3.1 to 4
# Conditions: plain residues with an end cap or a label only (N-terminal biotin on a linker: ado-ado)
row,Binder,pKd
1,"TKEIPNCTSV [SORCS3, Q9UPU3]",4.05
2,"NSTHNLKDYV [CLDN20, P56880]",below the threshold

# Biological target: T6, FRMPD1, Q5SYB0
# T6 sequence (Q5SYB0 52-145, limits assumed, looked up): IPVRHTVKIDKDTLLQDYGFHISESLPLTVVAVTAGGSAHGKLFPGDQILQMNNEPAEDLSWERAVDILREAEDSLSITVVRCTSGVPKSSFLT
# Test: holdup assay
# Set-up: key: below the threshold = too weak to quantify, mostly under pKd 3.1 to 4
# Conditions: plain residues with an end cap or a label only (N-terminal biotin on a linker: ado-ado)
row,Binder,pKd
1,"TKEIPNCTSV [SORCS3, Q9UPU3]",below the threshold
2,"NSTHNLKDYV [CLDN20, P56880]",below the threshold

# Biological target: GORASP1, Q9BQQ3
# Test: holdup assay
# Set-up: key: below the threshold = too weak to quantify, mostly under pKd 3.1 to 4
# Conditions: plain residues with an end cap or a label only (N-terminal biotin on a linker: ado-ado)
# Sequence of GORASP1, Q9BQQ3 (Q9BQQ3 1-208): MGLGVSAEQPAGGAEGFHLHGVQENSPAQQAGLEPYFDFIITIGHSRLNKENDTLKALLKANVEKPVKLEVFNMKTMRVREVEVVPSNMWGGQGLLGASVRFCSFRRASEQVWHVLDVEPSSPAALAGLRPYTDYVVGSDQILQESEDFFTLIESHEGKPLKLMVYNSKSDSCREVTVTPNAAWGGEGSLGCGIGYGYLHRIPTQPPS
row,Binder,pKd
1,"TKEIPNCTSV [SORCS3, Q9UPU3]",below the threshold
2,"NSTHNLKDYV [CLDN20, P56880]",below the threshold

# Biological target: GRIP2_3, Q9C0E4
# Test: holdup assay
# Set-up: key: below the threshold = too weak to quantify, mostly under pKd 3.1 to 4
# Conditions: plain residues with an end cap or a label only (N-terminal biotin on a linker: ado-ado)
# Sequence of GRIP2_3, Q9C0E4 (Q9C0E4 238-339): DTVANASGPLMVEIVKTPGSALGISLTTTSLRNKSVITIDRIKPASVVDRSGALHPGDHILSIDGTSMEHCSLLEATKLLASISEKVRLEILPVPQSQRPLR
row,Binder,pKd
1,"TKEIPNCTSV [SORCS3, Q9UPU3]",below the threshold
2,"NSTHNLKDYV [CLDN20, P56880]",below the threshold

# Biological target: GRIP2_7, Q9C0E4
# Test: holdup assay
# Set-up: key: below the threshold = too weak to quantify, mostly under pKd 3.1 to 4
# Conditions: plain residues with an end cap or a label only (N-terminal biotin on a linker: ado-ado)
# Sequence of GRIP2_7, Q9C0E4 (Q9C0E4 934-1023): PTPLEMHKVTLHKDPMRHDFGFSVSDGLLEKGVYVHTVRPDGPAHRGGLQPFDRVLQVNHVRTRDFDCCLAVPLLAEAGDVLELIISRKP
row,Binder,pKd
1,"TKEIPNCTSV [SORCS3, Q9UPU3]",below the threshold
2,"NSTHNLKDYV [CLDN20, P56880]",below the threshold

# Biological target: T7, HTRA3, P83110
# T7 sequence (P83110 354-453, limits assumed, looked up): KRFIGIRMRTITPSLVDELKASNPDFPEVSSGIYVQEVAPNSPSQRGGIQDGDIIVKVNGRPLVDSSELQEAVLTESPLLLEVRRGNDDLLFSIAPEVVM
# Test: holdup assay
# Set-up: key: below the threshold = too weak to quantify, mostly under pKd 3.1 to 4
# Conditions: plain residues with an end cap or a label only (N-terminal biotin on a linker: ado-ado)
row,Binder,pKd
1,"TKEIPNCTSV [SORCS3, Q9UPU3]",3.52
2,"NSTHNLKDYV [CLDN20, P56880]",3.97

# Biological target: LIMK2, P53671
# Test: holdup assay
# Set-up: key: below the threshold = too weak to quantify, mostly under pKd 3.1 to 4
# Conditions: plain residues with an end cap or a label only (N-terminal biotin on a linker: ado-ado)
# Sequence of LIMK2, P53671 (P53671 143-248): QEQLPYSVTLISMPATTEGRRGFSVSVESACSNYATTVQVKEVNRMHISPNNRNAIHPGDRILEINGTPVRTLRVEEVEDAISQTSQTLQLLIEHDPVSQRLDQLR
row,Binder,pKd
1,"TKEIPNCTSV [SORCS3, Q9UPU3]",below the threshold
2,"NSTHNLKDYV [CLDN20, P56880]",below the threshold

# Biological target: MAGI1_2, Q96QZ7
# Test: holdup assay
# Set-up: key: below the threshold = too weak to quantify, mostly under pKd 3.1 to 4
# Conditions: plain residues with an end cap or a label only (N-terminal biotin on a linker: ado-ado)
# Sequence of MAGI1_2, Q96QZ7 (Q96QZ7 456-580): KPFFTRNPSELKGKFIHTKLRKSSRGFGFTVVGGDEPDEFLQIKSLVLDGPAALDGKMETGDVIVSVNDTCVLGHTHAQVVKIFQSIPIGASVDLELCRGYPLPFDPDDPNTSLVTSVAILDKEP
row,Binder,pKd
1,"TKEIPNCTSV [SORCS3, Q9UPU3]",3.94
2,"NSTHNLKDYV [CLDN20, P56880]",below the threshold

# Biological target: NHERF4_2, Q86UT5
# Test: holdup assay
# Set-up: key: below the threshold = too weak to quantify, mostly under pKd 3.1 to 4
# Conditions: plain residues with an end cap or a label only (N-terminal biotin on a linker: ado-ado)
# Sequence of NHERF4_2, Q86UT5 (Q86UT5 220-308): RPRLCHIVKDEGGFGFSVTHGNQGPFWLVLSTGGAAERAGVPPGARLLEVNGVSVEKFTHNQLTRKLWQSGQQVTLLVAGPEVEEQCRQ
row,Binder,pKd
1,"TKEIPNCTSV [SORCS3, Q9UPU3]",3.49
2,"NSTHNLKDYV [CLDN20, P56880]",below the threshold

# Biological target: T8, PARD3B_1, Q8TEW8
# T8 sequence (Q8TEW8 196-299, limits assumed, looked up): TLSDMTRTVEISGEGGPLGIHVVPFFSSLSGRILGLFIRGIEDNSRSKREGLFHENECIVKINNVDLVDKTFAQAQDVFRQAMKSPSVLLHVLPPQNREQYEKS
# Test: holdup assay
# Set-up: key: below the threshold = too weak to quantify, mostly under pKd 3.1 to 4
# Conditions: plain residues with an end cap or a label only (N-terminal biotin on a linker: ado-ado)
row,Binder,pKd
1,"TKEIPNCTSV [SORCS3, Q9UPU3]",below the threshold
2,"NSTHNLKDYV [CLDN20, P56880]",below the threshold

# Biological target: PARD3_3, Q8TEW0
# Test: holdup assay
# Set-up: key: below the threshold = too weak to quantify, mostly under pKd 3.1 to 4
# Conditions: plain residues with an end cap or a label only (N-terminal biotin on a linker: ado-ado)
# Sequence of PARD3_3, Q8TEW0 (Q8TEW0 582-685): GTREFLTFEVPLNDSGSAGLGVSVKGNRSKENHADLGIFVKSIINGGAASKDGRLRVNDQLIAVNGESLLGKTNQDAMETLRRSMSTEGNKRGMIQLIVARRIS
row,Binder,pKd
1,"TKEIPNCTSV [SORCS3, Q9UPU3]",below the threshold
2,"NSTHNLKDYV [CLDN20, P56880]",below the threshold

# Biological target: T9, PDZD7_3, Q9H5P4
# T9 sequence (Q9H5P4 857-944, limits assumed, looked up): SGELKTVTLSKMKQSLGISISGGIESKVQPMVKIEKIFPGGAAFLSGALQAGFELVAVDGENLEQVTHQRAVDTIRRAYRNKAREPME
# Test: holdup assay
# Set-up: key: below the threshold = too weak to quantify, mostly under pKd 3.1 to 4
# Conditions: plain residues with an end cap or a label only (N-terminal biotin on a linker: ado-ado)
row,Binder,pKd
1,"TKEIPNCTSV [SORCS3, Q9UPU3]",4.82
2,"NSTHNLKDYV [CLDN20, P56880]",below the threshold

# Biological target: SCRIB_1, Q14160
# Test: holdup assay
# Set-up: key: below the threshold = too weak to quantify, mostly under pKd 3.1 to 4
# Conditions: plain residues with an end cap or a label only (N-terminal biotin on a linker: ado-ado)
# Sequence of SCRIB_1, Q14160 (Q14160 718-814): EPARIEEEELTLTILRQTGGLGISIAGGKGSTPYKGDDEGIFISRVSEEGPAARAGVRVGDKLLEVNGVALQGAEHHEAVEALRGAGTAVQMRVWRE
row,Binder,pKd
1,"TKEIPNCTSV [SORCS3, Q9UPU3]",4.53
2,"NSTHNLKDYV [CLDN20, P56880]",below the threshold

# Biological target: SCRIB_3, Q14160
# Test: holdup assay
# Set-up: key: below the threshold = too weak to quantify, mostly under pKd 3.1 to 4
# Conditions: plain residues with an end cap or a label only (N-terminal biotin on a linker: ado-ado)
# Sequence of SCRIB_3, Q14160 (Q14160 999-1103): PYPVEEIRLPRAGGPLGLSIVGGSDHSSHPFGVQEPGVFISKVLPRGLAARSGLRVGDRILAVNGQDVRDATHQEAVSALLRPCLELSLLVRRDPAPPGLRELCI
row,Binder,pKd
1,"TKEIPNCTSV [SORCS3, Q9UPU3]",4.24
2,"NSTHNLKDYV [CLDN20, P56880]",below the threshold

# Biological target: T10, SIPA1L2, Q9P2F8
# T10 sequence (Q9P2F8 945-1036, limits assumed, looked up): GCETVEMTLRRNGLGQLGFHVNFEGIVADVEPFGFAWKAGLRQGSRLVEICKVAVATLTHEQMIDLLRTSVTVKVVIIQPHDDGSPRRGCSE
# Test: holdup assay
# Set-up: key: below the threshold = too weak to quantify, mostly under pKd 3.1 to 4
# Conditions: plain residues with an end cap or a label only (N-terminal biotin on a linker: ado-ado)
row,Binder,pKd
1,"TKEIPNCTSV [SORCS3, Q9UPU3]",3.49
2,"NSTHNLKDYV [CLDN20, P56880]",below the threshold

# Biological target: T11, SNTA1, Q13424
# T11 sequence (Q13424 82-180, limits assumed, looked up): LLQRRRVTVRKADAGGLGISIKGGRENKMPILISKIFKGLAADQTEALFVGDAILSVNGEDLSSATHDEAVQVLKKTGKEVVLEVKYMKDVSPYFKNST
# Test: holdup assay
# Set-up: key: below the threshold = too weak to quantify, mostly under pKd 3.1 to 4
# Conditions: plain residues with an end cap or a label only (N-terminal biotin on a linker: ado-ado)
row,Binder,pKd
1,"TKEIPNCTSV [SORCS3, Q9UPU3]",4.16
2,"NSTHNLKDYV [CLDN20, P56880]",below the threshold

# Biological target: T12, SNTG1, Q9NSN8
# T12 sequence (Q9NSN8 52-150, limits assumed, looked up): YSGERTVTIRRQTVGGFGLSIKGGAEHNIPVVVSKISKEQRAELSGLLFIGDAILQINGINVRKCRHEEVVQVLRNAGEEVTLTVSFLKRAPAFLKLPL
# Test: holdup assay
# Set-up: key: below the threshold = too weak to quantify, mostly under pKd 3.1 to 4
# Conditions: plain residues with an end cap or a label only (N-terminal biotin on a linker: ado-ado)
row,Binder,pKd
1,"TKEIPNCTSV [SORCS3, Q9UPU3]",4
2,"NSTHNLKDYV [CLDN20, P56880]",below the threshold

# Biological target: TJP1_2, Q07157
# Test: holdup assay
# Set-up: key: below the threshold = too weak to quantify, mostly under pKd 3.1 to 4
# Conditions: plain residues with an end cap or a label only (N-terminal biotin on a linker: ado-ado)
# Sequence of TJP1_2, Q07157 (Q07157 181-274): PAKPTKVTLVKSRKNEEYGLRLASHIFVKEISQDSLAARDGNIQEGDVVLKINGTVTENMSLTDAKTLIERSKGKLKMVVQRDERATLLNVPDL
row,Binder,pKd
1,"TKEIPNCTSV [SORCS3, Q9UPU3]",below the threshold
2,"NSTHNLKDYV [CLDN20, P56880]",below the threshold

# Biological target: TJP2_1, Q9UDY2
# Test: holdup assay
# Set-up: key: below the threshold = too weak to quantify, mostly under pKd 3.1 to 4
# Conditions: plain residues with an end cap or a label only (N-terminal biotin on a linker: ado-ado)
# Sequence of TJP2_1, Q9UDY2 (Q9UDY2 24-128): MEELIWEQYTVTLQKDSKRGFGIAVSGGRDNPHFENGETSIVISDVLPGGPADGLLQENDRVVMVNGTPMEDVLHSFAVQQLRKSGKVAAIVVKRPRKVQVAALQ
row,Binder,pKd
1,"TKEIPNCTSV [SORCS3, Q9UPU3]",below the threshold
2,"NSTHNLKDYV [CLDN20, P56880]",3.8

# Biological target: T13, TJP3_3, O95049
# T13 sequence (O95049 375-456, limits assumed, looked up): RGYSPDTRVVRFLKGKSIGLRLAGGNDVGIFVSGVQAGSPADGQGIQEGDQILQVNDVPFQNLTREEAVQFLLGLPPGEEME
# Test: holdup assay
# Set-up: key: below the threshold = too weak to quantify, mostly under pKd 3.1 to 4
# Conditions: plain residues with an end cap or a label only (N-terminal biotin on a linker: ado-ado)
row,Binder,pKd
1,"TKEIPNCTSV [SORCS3, Q9UPU3]",3.54
2,"NSTHNLKDYV [CLDN20, P56880]",below the threshold
